This passage reports cell proliferation (Tag-it violet cell tracking staining), 6 days under IFN-γ treatment and percentage of proliferation (flow cytometry, Tag-it Violet), 6 days, 5 ng/mL IFN-γ results from US20250290040A1.

The assay deals with IFNγR-IL2/IL15R signal converter. As to the kind of experiment: cell-based or functional assay.
Sequence of IFNγR-IL2/IL15R signal converter (chain, as listed by the source limits assumed, chain 1 of 2): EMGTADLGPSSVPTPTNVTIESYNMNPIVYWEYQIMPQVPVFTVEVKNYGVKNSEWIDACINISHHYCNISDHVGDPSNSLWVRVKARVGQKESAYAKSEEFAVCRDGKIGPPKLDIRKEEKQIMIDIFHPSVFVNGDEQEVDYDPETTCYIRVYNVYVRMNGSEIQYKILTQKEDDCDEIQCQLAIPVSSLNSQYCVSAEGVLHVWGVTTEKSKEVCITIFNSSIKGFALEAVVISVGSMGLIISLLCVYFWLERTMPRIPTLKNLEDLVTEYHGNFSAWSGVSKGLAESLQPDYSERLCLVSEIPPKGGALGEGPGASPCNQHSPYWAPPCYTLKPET
Sequence of IFNγR-IL2/IL15R signal converter (chain, as listed by the source limits assumed, chain 2 of 2): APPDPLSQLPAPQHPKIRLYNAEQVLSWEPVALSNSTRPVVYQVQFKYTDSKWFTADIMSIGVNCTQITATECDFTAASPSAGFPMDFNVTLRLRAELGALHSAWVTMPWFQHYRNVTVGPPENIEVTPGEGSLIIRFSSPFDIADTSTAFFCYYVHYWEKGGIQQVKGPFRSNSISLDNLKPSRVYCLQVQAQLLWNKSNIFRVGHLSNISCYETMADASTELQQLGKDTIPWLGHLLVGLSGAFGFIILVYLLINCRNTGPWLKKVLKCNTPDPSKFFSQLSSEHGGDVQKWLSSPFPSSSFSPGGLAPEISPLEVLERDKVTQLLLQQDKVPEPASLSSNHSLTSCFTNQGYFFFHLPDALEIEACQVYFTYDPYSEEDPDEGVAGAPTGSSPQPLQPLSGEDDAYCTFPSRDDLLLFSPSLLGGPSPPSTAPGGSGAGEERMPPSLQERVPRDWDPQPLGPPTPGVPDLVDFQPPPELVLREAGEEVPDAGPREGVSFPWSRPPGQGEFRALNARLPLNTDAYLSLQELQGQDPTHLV

“IFN-γ (from UniProt P01579 24-166) (ligand)” showed a cell proliferation (Tag-it violet cell tracking staining), 6 days under IFN-γ treatment of 40% and a percentage of proliferation (flow cytometry, Tag-it Violet), 6 days, 5 ng/mL IFN-γ of 42.3%.
